# Test results taken from patent US20240368668A1, “SUBSTRATES AND BIOMARKERS OF ADAMTS7” (The Broad Institute, Inc., priority 2021, published 2024).
# Target: T1, mouse ADAMTS7 (Mus musculus, UniProt Q68SA9)
# T1 construct: Full-length mouse Adamts7 1-1857 (Uniprot Q68SA9, WT or E373Q catalytic mutant); expressed in transfected cells; host or cells: Human Coronary Artery Smooth Muscle Cells (HCA-SMC, Lonza), adenovirus 50 MOI
# T1 sequence (Q68SA9 221-1657): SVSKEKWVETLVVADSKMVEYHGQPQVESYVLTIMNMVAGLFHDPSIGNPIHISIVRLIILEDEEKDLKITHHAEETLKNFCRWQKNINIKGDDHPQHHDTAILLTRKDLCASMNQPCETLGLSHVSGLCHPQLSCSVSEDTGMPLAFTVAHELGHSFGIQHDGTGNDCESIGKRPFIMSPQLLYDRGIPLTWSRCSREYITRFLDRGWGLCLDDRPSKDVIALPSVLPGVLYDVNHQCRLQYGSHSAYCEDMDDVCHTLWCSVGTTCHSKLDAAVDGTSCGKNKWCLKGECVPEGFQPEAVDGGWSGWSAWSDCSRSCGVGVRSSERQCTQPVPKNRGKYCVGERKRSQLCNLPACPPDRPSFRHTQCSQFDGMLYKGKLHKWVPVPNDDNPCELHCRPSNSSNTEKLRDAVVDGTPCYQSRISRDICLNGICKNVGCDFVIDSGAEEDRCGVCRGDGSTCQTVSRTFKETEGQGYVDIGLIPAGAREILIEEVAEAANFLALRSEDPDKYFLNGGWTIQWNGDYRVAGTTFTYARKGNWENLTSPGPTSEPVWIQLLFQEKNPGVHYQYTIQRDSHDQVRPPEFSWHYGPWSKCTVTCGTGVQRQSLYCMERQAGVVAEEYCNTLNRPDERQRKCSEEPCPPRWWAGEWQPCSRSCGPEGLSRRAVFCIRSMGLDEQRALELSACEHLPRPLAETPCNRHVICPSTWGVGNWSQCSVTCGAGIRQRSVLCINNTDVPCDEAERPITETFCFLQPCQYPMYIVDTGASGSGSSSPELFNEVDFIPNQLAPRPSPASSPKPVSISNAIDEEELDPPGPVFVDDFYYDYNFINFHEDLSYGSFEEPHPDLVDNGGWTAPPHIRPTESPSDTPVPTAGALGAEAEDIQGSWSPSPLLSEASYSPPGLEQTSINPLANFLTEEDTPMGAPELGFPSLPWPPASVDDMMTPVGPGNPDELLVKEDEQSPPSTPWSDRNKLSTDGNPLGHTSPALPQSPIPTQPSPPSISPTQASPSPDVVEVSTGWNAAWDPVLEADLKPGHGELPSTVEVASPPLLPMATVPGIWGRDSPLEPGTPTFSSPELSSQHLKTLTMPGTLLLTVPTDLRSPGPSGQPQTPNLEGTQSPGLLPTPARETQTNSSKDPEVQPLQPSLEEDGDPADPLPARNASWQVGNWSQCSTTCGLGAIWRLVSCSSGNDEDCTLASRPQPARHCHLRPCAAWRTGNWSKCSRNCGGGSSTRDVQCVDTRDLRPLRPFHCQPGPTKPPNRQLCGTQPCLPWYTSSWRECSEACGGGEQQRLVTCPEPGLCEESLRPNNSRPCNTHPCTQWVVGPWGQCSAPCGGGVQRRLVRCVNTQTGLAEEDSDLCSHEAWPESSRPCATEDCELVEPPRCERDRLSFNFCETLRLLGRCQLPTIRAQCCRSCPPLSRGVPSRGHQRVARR
# Experiment: TMT10 TAILS N-terminomics, SMC2 experiment (process replicates, trypsin/AspN digest)
# Assay type: cell-based
# Details: for logFC.mWT.over.Luc: SMC2_TAILS HC, log fold change of N-terminal peptide, Ad-mADAMTS7 WT over Luc
# In short: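 Full-length mouse ADAMTS7 (WT or E373Q mutant, C-terminal 3xFLAG) or luciferase was transduced via adenovirus, 50 MOI, into HCA-SMC (SMC1, SMC2) or HUVEC. SMC1: pooled media, technical triplicates 400 ug; SMC2: process triplicates 300 ug; HUVEC: process triplicates 200 ug, bFGF2 10 ng/ml.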
logFC.mWT.over.Luc,"logFC.mWT.over.Lux (log fold change, ADAMTS7 WT over luciferase)",Substance
1.01,,VIM_322 (QVQSLTCEV; listed as Homo sapiens)
,2.91,VIM_433 (LVDTHSKR; listed as Homo sapiens)
2.79,,ZSCAN4_25 (FQQSQGPAVQR; listed as Homo sapiens)
